From patent publication US20150368327A1 (YOKOHAMA CITY UNIVERSITY, published 2015)

Experiments:
[1] = biological target: bovine serum albumin (BSA) (bovine, UniProt P02769 25-607); assay: antigen solid phase ELISA: coated BSA, anti-mouse IgG2A-HRP, A450
Experimental: The obtained avian-mouse chimeric antibody in Example 1 and the obtained humanized antibodies (Humanized-1 and Humanized-2) and avian-human chimeric antibody in Example 2 were measured for antigenic specificity by antigen solid phase ELISA with PBS buffer. The obtained avian-mouse chimeric antibody in Example 1, which was labeled with biotin, was also measured for antigenic specificity. CL18M (+) avian-mouse chimeric antibody, which served as a negative control, was also measured for antigenic specificity. Particular measurement conditions were as follows.
Firstly, 2.5 μg/mL of antigen (mouse and human Sema 3A protein) was dispensed into a 384 Well MaxiSorp Plate (Nunc) and reacted overnight at 4° C. in order to coat the plate with the antigen. Otherwise, ovalbumin (OVA) and bovine serum albumin (BSA) were immobilized in the plate as negative controls in similar manner in order to examine specificity of antibodies. After reaction, the plate was washed three times with 50 μL/well of washing solution (PBS containing 0.05% Tween 20), to which was added 25 μL/well of blocking solution (PBS buffer containing 1% bovine serum albumin), and the mixture was reacted for 30 minutes. […] The absorbance was measured at 450 nm using Infinite M1000 (Tecan Trading AG).

[2] = biological target: T1, human Sema 3A protein (human, UniProt Q14563 21-771, limits assumed); assay: competitive ELISA on plate-coated human Sema 3A; competitor biotin-labelled avian-mouse chimeric antibody (clone No. 4-2) at 60 ng/mL
T1 construct: also called Human Sema 3A antigen; human-derived Sema 3A protein
T1 sequence (looked up): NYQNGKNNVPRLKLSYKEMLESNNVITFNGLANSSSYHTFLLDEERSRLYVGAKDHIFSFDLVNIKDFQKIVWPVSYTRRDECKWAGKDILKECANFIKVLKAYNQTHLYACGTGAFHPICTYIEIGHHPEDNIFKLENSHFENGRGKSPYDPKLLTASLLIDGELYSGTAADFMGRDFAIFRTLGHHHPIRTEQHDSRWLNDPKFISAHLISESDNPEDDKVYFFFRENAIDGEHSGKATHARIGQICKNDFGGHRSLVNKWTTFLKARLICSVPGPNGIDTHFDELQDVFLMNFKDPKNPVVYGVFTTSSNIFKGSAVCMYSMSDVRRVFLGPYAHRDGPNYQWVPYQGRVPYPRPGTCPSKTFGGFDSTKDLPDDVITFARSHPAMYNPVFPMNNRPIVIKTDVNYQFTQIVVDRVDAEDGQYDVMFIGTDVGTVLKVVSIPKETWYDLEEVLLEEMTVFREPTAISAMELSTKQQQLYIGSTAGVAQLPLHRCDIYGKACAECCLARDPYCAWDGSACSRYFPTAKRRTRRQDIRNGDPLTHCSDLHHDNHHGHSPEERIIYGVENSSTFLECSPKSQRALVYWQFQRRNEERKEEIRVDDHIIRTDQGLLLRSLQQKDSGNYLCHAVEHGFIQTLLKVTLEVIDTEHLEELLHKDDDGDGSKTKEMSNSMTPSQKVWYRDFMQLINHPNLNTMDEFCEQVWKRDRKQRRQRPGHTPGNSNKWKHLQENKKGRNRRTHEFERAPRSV
Experimental: The obtained clone No. 4-2-derived avian-mouse chimeric antibody in Example 1, the obtained humanized antibodies in Example 2 (Humanized-1 and Humanized-2) and avian-human chimeric antibody were subjected to competitive ELISA to evaluate affinity to the antigen. CL18M (+) avian-mouse chimeric antibody, which served as a negative control, was also measured for affinity to the antigen. Particular measurement conditions were as follows.
Firstly, 2.5 μg/mL of antigen (mouse and human Sema 3A protein) was dispensed into a 384 Well MaxiSorp Plate (Nunc) and reacted overnight at 4° C. in order to coat the plate with the antigen. The next day, the plate was washed three times with 50 μL/well of washing solution (PBS containing 0.05% Tween 20), to which was added 25 μL/well of blocking solution (PBS containing 1% bovine serum albumin) and the mixture was reacted for 30 minutes. Each of humanized antibodies (Humanized-1 and Humanized-2), avian-human chimeric antibody and avian-mouse chimeric antibody was subjected to serial doubling dilution, to which was mixed anti-Sema 3A avian-mouse chimeric antibody labeled with biotin to the final concentration of 60 ng/mL, and the mixture was reacted with the antigen solid phase plate which was washed three times with 50 μL/well of washing solution for one hour. The plate was washed five times with 50 μL/well of washing solution, to which was added 20 μL/well of diluent in which streptavidin labeled with horseradish peroxidase (HRP) (Thermo Fisher Scientific K.K.) was diluted 10000 times with PBS buffer and the mixture was reacted for 30 minutes. The plate was washed five times with 50 μL/well of washing solution, to which was added 20 μL/well of TMB+(Dako) and the mixture was chromogenically reacted for 20 minutes. Subsequently, to the each well was added 20 μL, of 1M sulfuric acid to quench the reaction. The absorbance was measured at 450 nm using Infinite M1000 (Tecan Trading AG).

bovine serum albumin (BSA), sequence (P02769 25-607 limits assumed): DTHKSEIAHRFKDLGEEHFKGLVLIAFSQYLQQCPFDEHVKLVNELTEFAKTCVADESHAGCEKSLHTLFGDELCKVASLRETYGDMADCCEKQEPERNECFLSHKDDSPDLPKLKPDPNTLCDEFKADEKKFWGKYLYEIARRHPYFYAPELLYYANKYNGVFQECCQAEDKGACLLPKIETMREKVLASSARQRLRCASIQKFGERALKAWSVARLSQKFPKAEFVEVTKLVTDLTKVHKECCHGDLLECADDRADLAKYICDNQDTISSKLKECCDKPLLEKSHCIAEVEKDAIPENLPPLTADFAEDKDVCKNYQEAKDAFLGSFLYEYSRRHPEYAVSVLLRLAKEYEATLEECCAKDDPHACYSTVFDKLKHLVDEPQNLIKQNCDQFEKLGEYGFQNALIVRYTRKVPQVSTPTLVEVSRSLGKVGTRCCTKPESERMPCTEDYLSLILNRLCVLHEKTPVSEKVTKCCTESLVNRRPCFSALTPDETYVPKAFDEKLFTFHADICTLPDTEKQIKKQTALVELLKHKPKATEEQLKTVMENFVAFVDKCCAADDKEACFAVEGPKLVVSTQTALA

- binding result [1]: no binding (tested: about 2 µg/mL)
- IC50 [2]: 0.074 µg/mL
B1: Anti-Sema 3A avian-mouse chimeric antibody (clone No. 4-2-derived) (antibody, mouse IgG2a)
heavy: AVTLDESGGGLQTPGGALSLVCKASGFTFSSYPMGWVRQAPGKGLEWVAGIDDDGDSDTRYAPAVKGRATISRDNGQSTVRLQLNNLRAEDTGTYYCAKHTGIGANSAGSIDAWGHGTEVIVSSAKTTAPSVYPLAPVCGDTTGSSVTLGCLVKGYFPEPVTLTWNSGSLSSGVHTFPAVLQSDLYTLSSSVTVTSSTWPSQSITCNVAHPASSTKVDKKIEPRGPTIKPCPPCKCPAPNLLGGPSVFIFPPKIKDVLMISLSPIVTCVVVDVSEDDPDVQISWFVNNVEVHTAQTQTHREDYNSTLRVVSALPIQHQDWMSGKEFKCKVNNKDLPAPIERTISKPKGSVRAPQVYVLPPPEEEMTKKQVTLTCMVTDFMPEDIYVEWTNNGKTELNYKNTEPVLDSDGSYFMYSKLRVEKKNWVERNSYSCSVVHEGLHNHHTTKSFSRTPGK
light: ALTQPASVSANLGGTVKITCSGGGSYTGSYYYGWYQQKSPGSALVTMIYYNNKRPSDIPSRFSGSLSGSTNTLTITGVRADDEAVYFCGSADNSGDAFGAGTTLTVLGQPKSSPSVTLFPPSSEELETNKATLVCTITDFYPGVVTVDWKVDGTPVTQGMETTQPSKQSNNKYMASSYLTLTARAWERHSSYSCQVTHEGHTVEKSLSRADCS
notes: Avian variable regions of clone No. 4-2 with mouse IgG2a heavy and mouse lambda light constant regions; also called anti-Sema 3A avian-mouse chimeric antibody (IgG)
